# Patent publication CN112745392A (SHANGHAI NOVAMAB BIOPHARMACEUTICALS CO LTD, dated 2021)
# Key:
# hPD-L1(ECD)-Fc = biological target: T1, hPD-L1(ECD)-Fc (human, UniProt Q9NZQ7 19-238); test: BLI (Fortebio Red96), Protein A probes, 30℃
# T1 construct: extracellular domain; also called 重组人PD-L1; not shown: Fc part not described
# hCD47(ECD)-Fc = biological target: T2, hCD47(ECD)-Fc (human, UniProt Q08722 19-139); test: BLI (Fortebio Red96), Protein A probes, 30℃
# T2 construct: extracellular domain; not shown: Fc part not described
# [1] = biological target: T3, 人CD47 (Jurkat细胞, 高表达人CD47) (human, UniProt Q08722 19-323); test: flow cytometry competition against hSIRPa(ECD)-Fc-Biotin on Jurkat cells
# T3 construct: whole, on cells
# T3 sequence (Q08722 19-323): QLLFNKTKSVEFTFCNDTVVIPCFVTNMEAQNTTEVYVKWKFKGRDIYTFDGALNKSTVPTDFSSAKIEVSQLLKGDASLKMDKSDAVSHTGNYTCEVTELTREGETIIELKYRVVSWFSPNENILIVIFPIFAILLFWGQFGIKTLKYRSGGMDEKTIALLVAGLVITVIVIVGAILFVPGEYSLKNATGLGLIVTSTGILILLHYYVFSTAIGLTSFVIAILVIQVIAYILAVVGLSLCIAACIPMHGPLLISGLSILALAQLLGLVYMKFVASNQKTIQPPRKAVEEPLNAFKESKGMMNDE
# T2 sequence (Q08722 19-139): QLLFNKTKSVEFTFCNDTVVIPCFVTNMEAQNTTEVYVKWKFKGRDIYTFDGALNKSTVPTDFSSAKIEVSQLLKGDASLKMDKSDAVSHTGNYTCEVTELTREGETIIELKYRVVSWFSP
# T1 sequence (Q9NZQ7 19-238): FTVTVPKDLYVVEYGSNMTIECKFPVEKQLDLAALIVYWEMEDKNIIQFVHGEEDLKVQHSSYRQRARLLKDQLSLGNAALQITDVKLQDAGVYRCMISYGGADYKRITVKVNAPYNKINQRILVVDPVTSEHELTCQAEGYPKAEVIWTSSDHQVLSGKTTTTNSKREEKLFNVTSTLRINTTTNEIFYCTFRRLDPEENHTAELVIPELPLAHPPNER
Kd (hPD-L1(ECD)-Fc) [nM],Kd (hCD47(ECD)-Fc) [nM],IC50 [1] [nM],Binder
26.5,,,"PD-L1单域抗体Fc融合蛋白(Nb-Fc) (Fc fusion, Control; also called PD-L1 Nb-Fc; 原始PD-L1单域抗体; not shown: Fc part (and any hinge or linker) of the control fusion is not described) QVQLQESGGGLVQPGGSLRLSCTASGYNLSPSCMGWFRQAPGKGLEGVAFTDADGSTRYADSVKARFTISRDNSKNTLYLQMNSLRAEDTAVYYCAADFFSYCSVVFRASARDKYRGQGTLVTVSS"
,6.13,4.49,"CD47单域抗体Fc融合蛋白(Nb-Fc) (Fc fusion, Control; also called CD47 Nb-Fc; 原始CD47单域抗体; not shown: Fc part (and any hinge or linker) of the control fusion is not described) QVQLQESGGGLVQPGGSLRLSCAASGYAYTSDCMGWFRQTPGKGLEGVALIYTPGASTNYADSVKGRFTISQDNSKSTVYLQMNSLRAEDTAMYYCAARRGACSLRLPFFYWGQGTLVTVSS"
